# Laboratory results taken from US20130315910A1 (Xencor, published 2013).
# Residue numbers refer to the chain shown, from its start. Names may count otherwise.
# T1: human FcγRIIb receptor protein (R&D Systems) (human, UniProt P31994 46-217)
# T1 construct: Bought protein injected over captured antibody in Biacore; also called CD32b
# T1 sequence (looked up): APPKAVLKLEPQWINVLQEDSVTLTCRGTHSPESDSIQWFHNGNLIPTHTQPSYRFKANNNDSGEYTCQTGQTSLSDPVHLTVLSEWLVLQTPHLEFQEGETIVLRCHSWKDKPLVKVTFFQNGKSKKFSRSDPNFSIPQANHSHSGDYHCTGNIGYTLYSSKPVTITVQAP
# T2: human FcγRIIa (131R), His- and GST-tagged (human, UniProt P12318 34-217)
# T2 construct: Expressed in HEK293T cells, purified by nickel chromatography; also called R131 FcγRIIa; not shown: 6xHis and GST tags of the pTT5 vector
# T2 sequence (looked up): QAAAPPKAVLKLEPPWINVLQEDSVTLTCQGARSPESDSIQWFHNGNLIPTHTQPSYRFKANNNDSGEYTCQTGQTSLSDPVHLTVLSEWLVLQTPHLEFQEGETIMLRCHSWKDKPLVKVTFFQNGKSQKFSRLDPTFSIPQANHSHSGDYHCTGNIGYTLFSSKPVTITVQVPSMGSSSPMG
# T3: human FcγRIIa (131H), His- and GST-tagged (human, UniProt P12318 34-217)
# T3 construct: also called H131 FcγRIIa; HIIa; not shown: 6xHis and GST tags of the pTT5 vector
# T3 sequence (looked up): T2 sequence (looked up) with R134H
# T4: mFcγRIIb (Mus musculus, UniProt P08101)
# T4 construct: extracellular region, C-terminal His- and GST-tag; also called mouse FcγRII
# T4 sequence (receptor extracellular region, looked up): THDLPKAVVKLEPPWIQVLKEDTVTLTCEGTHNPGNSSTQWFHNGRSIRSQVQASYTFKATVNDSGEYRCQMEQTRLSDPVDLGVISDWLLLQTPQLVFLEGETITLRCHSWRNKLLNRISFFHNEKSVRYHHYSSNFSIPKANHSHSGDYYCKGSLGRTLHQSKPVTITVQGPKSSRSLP
# T5: mFcγRIV
# T5 construct: also called mouse FcγRIV; not shown: C-terminal His and GST tags (named only on our card)
# T5 chain: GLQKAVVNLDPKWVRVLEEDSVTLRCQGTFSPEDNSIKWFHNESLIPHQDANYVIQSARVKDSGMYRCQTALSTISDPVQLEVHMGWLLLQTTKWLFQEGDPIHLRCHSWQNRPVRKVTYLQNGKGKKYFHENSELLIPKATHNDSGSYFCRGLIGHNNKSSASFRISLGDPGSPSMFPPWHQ
# T6: cynoFcγRIIb (Macaca fascicularis, UniProt A0A140HDP4)
# T6 construct: extracellular region, C-terminal His- and GST-tag; also called cynomolgus monkey FcγRIIb
# T6 sequence (receptor extracellular region): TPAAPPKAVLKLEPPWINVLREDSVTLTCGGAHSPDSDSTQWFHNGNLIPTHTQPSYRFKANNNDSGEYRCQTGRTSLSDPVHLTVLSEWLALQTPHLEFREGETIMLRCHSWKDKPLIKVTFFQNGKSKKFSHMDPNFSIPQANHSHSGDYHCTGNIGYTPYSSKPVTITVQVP
# T7: human FcγRIIb on cells (transfected HEK293T cells; primary human B cells) (human, UniProt P31994 43-310)
# T7 construct: whole, on cells; also called CD32b
# T7 sequence (looked up): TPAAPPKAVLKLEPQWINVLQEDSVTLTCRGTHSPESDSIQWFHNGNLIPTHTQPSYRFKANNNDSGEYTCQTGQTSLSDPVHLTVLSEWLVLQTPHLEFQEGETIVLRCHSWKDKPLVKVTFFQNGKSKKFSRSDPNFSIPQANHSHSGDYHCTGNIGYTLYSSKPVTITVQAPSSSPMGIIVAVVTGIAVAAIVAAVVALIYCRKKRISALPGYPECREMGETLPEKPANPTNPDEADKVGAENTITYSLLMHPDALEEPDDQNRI
# B1: L234D/G236N/S267E (antibody, human IgG1, kappa)
# heavy: EVQLVESGGGLVKPGGSLKLSCAASGYTFTSYVMHWVRQAPGKGLEWIGYINPYNDGTKYNEKFQGRVTISSDKSISTAYMELSSLRSEDTAMYYCARGTYYYGTRVFDYWGQGTLVTVSSASTKGPSVFPLAPSSKSTSGGTAALGCLVKDYFPEPVTVSWNSGALTSGVHTFPAVLQSSGLYSLSSVVTVPSSSLGTQTYICNVNHKPSNTKVDKKVEPKSCDKTHTCPPCPAPEDLNGPSVFLFPPKPKDTLMISRTPEVTCVVVDVEHEDPEVKFNWYVDGVEVHNAKTKPREEQYNSTYRVVSVLTVLHQDWLNGKEYKCKVSNKALPAPIEKTISKAKGQPREPQVYTLPPSREEMTKNQVSLTCLVKGFYPSDIAVEWESNGQPENNYKTTPPVLDSDGSFFLYSKLTVDKSRWQQGNVFSCSVMHEALHNHYTQKSLSLSPGK
# light: DIVMTQSPATLSLSPGERATLSCRSSKSLQNVNGNTYLYWFQQKPGQSPQLLIYRMSNLNSGVPDRFSGSGSGTEFTLTISSLEPEDFAVYYCMQHLEYPITFGAGTKLEIKRTVAAPSVFIFPPSDEQLKSGTASVVCLLNNFYPREAKVQWKVDNALQSGNSQESVTEQDSKDSTYSLSSTLTLSKADYEKHKVYACEVTHQGLSSPVTKSFNRGEC
# notes: HuAM4G7 anti-CD19 IgG1 (m1) with these Fc substitutions, EU index; copies: 2 + 2
# B2: A327L (antibody, human IgG1, kappa)
# heavy: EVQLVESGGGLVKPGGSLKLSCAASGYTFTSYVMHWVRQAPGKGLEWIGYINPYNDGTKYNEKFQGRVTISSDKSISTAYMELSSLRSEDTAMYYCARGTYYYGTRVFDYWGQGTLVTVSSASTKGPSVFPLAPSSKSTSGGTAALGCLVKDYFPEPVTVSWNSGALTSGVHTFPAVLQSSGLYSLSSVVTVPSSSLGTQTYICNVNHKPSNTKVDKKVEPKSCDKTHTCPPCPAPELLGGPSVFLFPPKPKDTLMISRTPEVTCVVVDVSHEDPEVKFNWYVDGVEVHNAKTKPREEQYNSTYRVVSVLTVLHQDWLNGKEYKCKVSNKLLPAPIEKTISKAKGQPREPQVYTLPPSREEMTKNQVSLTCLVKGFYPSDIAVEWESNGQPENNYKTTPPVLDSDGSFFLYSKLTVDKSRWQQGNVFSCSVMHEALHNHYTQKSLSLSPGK
# light: B1 light
# notes: HuAM4G7 anti-CD19 IgG1 (m1) with this Fc substitution, EU index; copies: 2 + 2
# B3: S267E/A327E (antibody, human IgG1, kappa)
# heavy: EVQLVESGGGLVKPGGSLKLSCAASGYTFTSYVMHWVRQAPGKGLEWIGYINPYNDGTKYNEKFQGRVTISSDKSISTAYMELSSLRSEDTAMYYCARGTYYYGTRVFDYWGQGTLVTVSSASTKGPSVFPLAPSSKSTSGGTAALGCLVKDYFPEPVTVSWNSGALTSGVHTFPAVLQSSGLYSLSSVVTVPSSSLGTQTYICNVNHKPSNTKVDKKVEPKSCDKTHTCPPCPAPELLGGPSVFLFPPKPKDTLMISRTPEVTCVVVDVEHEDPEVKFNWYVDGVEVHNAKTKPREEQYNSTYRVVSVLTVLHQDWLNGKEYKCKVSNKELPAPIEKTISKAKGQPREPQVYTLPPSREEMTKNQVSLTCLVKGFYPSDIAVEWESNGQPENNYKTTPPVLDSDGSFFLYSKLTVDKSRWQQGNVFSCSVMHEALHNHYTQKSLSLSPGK
# light: B1 light
# notes: as for B1
# B4: S267D (antibody, human IgG1, kappa)
# heavy: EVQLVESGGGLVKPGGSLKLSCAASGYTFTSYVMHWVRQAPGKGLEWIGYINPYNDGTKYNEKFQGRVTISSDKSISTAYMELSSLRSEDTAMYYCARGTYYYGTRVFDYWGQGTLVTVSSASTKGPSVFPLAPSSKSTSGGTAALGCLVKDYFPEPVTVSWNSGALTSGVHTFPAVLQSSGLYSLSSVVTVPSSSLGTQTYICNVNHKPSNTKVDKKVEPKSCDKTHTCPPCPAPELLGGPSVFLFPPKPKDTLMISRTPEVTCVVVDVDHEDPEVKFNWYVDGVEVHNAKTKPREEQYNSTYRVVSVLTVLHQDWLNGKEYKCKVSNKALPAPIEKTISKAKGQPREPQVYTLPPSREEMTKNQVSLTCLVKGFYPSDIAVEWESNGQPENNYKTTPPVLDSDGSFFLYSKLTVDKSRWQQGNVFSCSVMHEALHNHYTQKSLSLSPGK
# light: B1 light
# notes: as for B2
# B5: G236S/G237A (antibody, human IgG1, kappa)
# heavy: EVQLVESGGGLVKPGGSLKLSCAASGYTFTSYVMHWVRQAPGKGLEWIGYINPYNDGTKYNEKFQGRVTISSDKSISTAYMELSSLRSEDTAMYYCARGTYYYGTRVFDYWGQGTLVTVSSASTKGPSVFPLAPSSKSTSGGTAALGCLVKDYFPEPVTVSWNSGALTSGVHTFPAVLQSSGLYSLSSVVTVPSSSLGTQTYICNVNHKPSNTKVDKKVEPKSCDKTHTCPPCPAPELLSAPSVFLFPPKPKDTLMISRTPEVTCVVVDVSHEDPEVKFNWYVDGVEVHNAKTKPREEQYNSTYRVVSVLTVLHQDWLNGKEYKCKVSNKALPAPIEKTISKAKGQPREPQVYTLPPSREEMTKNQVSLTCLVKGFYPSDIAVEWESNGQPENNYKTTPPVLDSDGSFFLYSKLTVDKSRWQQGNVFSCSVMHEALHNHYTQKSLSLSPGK
# light: B1 light
# notes: as for B1
# B6: S267E/L328Y (antibody, human IgG1, kappa)
# heavy: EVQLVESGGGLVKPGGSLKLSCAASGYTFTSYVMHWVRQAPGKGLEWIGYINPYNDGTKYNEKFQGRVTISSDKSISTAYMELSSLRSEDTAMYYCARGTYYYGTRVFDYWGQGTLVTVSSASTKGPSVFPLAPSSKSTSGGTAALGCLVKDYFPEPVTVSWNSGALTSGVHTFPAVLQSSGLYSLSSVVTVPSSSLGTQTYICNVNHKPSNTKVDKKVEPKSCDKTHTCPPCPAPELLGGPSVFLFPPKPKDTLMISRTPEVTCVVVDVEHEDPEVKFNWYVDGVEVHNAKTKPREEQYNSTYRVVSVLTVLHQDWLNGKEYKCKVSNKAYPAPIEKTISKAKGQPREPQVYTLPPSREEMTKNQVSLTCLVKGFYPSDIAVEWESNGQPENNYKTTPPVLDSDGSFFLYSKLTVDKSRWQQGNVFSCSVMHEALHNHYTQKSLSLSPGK
# light: B1 light
# notes: as for B1
# B7: G236A/G237A (antibody, human IgG1, kappa)
# heavy: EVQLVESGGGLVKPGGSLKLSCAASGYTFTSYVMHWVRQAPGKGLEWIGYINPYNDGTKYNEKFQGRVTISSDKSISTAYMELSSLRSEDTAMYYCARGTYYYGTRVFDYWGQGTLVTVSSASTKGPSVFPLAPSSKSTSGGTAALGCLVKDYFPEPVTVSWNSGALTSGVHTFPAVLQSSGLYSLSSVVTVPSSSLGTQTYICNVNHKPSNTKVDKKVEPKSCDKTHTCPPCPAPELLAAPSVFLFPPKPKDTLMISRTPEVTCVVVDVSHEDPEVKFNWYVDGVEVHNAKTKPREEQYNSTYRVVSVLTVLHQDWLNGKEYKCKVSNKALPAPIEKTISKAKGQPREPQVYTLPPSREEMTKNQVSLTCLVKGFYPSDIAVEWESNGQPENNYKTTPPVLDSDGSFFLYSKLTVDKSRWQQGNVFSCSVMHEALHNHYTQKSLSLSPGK
# light: B1 light
# notes: as for B1
# B8: anti-CD19 antibody HuAM4G7 IgG1 S267A (antibody)
# heavy: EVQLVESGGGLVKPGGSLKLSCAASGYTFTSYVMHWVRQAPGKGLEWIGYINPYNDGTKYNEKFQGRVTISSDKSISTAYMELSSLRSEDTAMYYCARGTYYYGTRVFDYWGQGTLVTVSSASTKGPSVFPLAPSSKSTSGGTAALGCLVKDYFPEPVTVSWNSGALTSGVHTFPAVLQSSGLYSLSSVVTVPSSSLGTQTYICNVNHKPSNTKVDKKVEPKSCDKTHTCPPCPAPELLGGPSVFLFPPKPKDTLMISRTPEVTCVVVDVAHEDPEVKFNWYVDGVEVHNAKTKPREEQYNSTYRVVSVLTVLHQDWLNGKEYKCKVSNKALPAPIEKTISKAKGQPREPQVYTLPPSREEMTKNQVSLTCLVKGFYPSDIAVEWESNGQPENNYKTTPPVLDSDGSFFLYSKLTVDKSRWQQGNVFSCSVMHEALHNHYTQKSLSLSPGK
# light: B1 light
# notes: Positions in EU numbering; copies: 2 + 2
# Biological target: T1, human FcγRIIb receptor protein (R&D …)
# Experiment: SPR
# 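Wherever Fold vs WT IgG1 (off-rate) is given: fold improvement over WT IgG1 so higher means slower dissociation than WT.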
Binder,Fold vs WT IgG1 [fold],Kd [nM],binding result
B1,5.11,287,–
B2,–,–,no binding
B3,30.9,47.5,–
B4,4.45,330,–
B5,0.0797,18400,–
B6,43.1,34.1,–
B7,0.0578,25400,–

# Biological target: T8, human FcγRI receptor protein (R&D Systems) (human, UniProt P12314 16-288)
# T8 construct: also called soluble FcγRI; solFcγRI
# T8 sequence (P12314 16-288 limits assumed): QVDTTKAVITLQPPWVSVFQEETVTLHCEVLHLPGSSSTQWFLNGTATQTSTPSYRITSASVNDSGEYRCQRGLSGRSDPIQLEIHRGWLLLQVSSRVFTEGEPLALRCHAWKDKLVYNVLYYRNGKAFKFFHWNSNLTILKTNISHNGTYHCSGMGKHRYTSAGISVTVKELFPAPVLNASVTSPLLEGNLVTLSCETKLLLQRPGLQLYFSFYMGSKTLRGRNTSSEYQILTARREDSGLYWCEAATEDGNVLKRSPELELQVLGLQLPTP
# Experiment: SPR
Binder,Fold vs WT IgG1 [fold],Kd [nM]
B8,1.15,0.287
B3,2.3,0.143
B4,2.11,0.156
B6,0.224,1.47

# Biological target: T2, human FcγRIIa (131R), His- and …
# Experiment: SPR
Binder,Fold vs WT IgG1 [fold],Kd [nM]
B1,0.728,1180
B8,4.29,200
B3,29.3,29.3
B4,8.99,95.5
B6,122,7.06

# Biological target: T3, human FcγRIIa (131H), His- and …
# Experiment: SPR
Binder,Fold vs WT IgG1 [fold],Kd [nM]
B8,1.22,530
B3,2.66,243
B4,0.93,695
B6,1.34,481

# Biological target: T9, human FcγRIIIa (158V), His- and GST-tagged (human, UniProt P08637 17-208)
# T9 construct: also called V158 FcγRIIIa; VIIIa; not shown: 6xHis and GST tags of the pTT5 vector
# T9 sequence (P08637 17-208 F176V): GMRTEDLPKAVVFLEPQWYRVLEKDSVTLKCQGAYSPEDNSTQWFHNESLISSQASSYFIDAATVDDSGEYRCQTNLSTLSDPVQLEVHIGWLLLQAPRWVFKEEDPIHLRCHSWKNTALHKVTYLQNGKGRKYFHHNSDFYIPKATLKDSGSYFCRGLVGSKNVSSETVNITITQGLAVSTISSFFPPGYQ
# Experiment: SPR
Binder,Fold vs WT IgG1 [fold],Kd [nM],binding result
B8,0.952,201,–
B3,0.00894,21400,–
B4,1.51,127,–
B6,–,–,no binding

# Biological target: T4, mFcγRIIb
# Experiment: SPR
row,Binder,Fold vs WT IgG1 (off-rate) [fold]
1,B8,3.02
2,B3,2.8
3,B4,1.95
4,B6,7.92

# Biological target: T5, mFcγRIV
# Experiment: SPR
row,Binder,Fold vs WT IgG1 (off-rate) [fold]
1,B8,1.53
2,B3,1.04
3,B4,1.27

# Biological target: T6, cynoFcγRIIb
# Experiment: SPR
row,Binder,Fold vs WT IgG1 (off-rate) [fold]
1,B8,1.05
2,B3,1.03
3,B4,1.03
4,B6,1.93

# Biological target: T10, cynoFcγRIIIa (Macaca fascicularis, UniProt Q8SPW2)
# T10 construct: extracellular region, C-terminal His- and GST-tag; also called cynomolgus monkey FcγRIIIa
# T10 sequence (Q8SPW2 17-208): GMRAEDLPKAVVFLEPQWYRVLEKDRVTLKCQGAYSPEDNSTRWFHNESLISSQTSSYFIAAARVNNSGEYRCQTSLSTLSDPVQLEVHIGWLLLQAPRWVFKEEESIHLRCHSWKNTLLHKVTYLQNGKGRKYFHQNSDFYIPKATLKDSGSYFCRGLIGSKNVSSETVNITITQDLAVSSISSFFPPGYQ
# Experiment: SPR
row,Binder,Fold vs WT IgG1 (off-rate) [fold]
1,B8,1.27
2,B3,0.465
3,B4,1.27

# Biological target: T4, mFcγRIIb
# Experiment: SPR, Kd
# Protocol: (§1) Variants were screened for receptor affinity using Biacore™ technology, also referred to as Biacore herein, a surface plasmon resonance (SPR) based technology for studying biomolecular interactions in real time. SPR measurements were performed using a Biacore 3000 instrument (Biacore, Piscataway, N.J.). A protein A/G (Pierce Biotechnology) CM5 biosensor chip (Biacore) was generated using a standard primary amine coupling protocol. All measurements were performed using HBS-EP buffer (10 mM HEPES pH 7.4, 0.15 M NaCl, 3 mM EDTA, 0.005% vol/vol surfactant P20, Biacore). Antibodies at 20 nM or 50 nM in HBS-EP buffer were immobilized on the protein A/G surface and FcγRs were injected. After each cycle, the surface was regenerated by injecting glycine buffer (10 mM, pH 1.5). Data were processed by zeroing time and response before the injection of FcγR and by subtracting appropriate nonspecific signals (response of reference channel and injection of running buffer). Kinetic analyses were performed by global fitting of binding data with a 1:1 Langmuir binding model using BIAevaluation software (Biacore).
# (§2) Variant antibodies were tested for their affinity to mouse or cynologous monkey FcγRs using Biacore SPR as described above. Specifically, antibodies were first immobilized on a protein A/G chip to high density, and then followed by injections of the extracellular domain of the mouse or cynologous monkey FcγR of interest. Both association and dissociation phases were tracked in real time using the Biacore technology.
row,Binder,binding result
1,B1,no binding
2,B2,no binding
3,B5,no binding
4,B7,no binding

# Biological target: T6, cynoFcγRIIb
# Experiment: SPR, Kd
# Protocol: as §1, §2
row,Binder,binding result
1,B1,no binding
2,B2,no binding
3,B5,no binding
4,B7,no binding

# Biological target: T10, cynoFcγRIIIa
# Experiment: SPR, Kd
# Protocol: as §1, §2
row,Binder,binding result
1,B6,no binding

# Biological target: T1, human FcγRIIb receptor protein (R&D …)
# Experiment: Biacore SPR, Kd(native IgG1)/Kd(variant)
row,Binder,fold affinity relative to native IgG1 [fold]
1,B8,3.6

# Biological target: T1, human FcγRIIb receptor protein (R&D …)
# Experiment: Biacore SPR, antibody captured on protein A/G chip, FcγR injected
row,Binder,Kd [nM]
1,B8,408

# Biological target: T7, human FcγRIIb on cells (transfected …)
# Experiment: flow cytometry on FcγRIIb-transfected 293T cells [top left panel]
# Protocol: (§3) In order to validate the Biacore data and evaluate receptor binding of the variants on the cell surface, binding of select antibodies to cells expressing FcγRIIb was measured. […] HEK293T cells in DMEM with 10% FBS were transfected with human FcγRIIb cDNA in pCMV6 expression vector (Origene Technologies, Rockville, Md.), cultured for 3 days, harvested, washed twice in PBS, resuspended in PBS with 0.1% BSA (PBS/BSA), and aliquoted at 2×10^5 cells per well into 96-well microtiter plates. Fc variant antibodies were serially diluted in PBS/BSA then added to the cells and incubated with mixing for 1 h at room temperature. After extensive washing with PBS/BSA, phycoerythrin (PE)-labeled anti-human-Fab-specific goat F(ab′)2 fragment was added for detection. Cells were incubated for 30 min at room temperature, washed, and resuspended in PBS/BSA. Binding was evaluated using a FACSCanto II flow cytometer (BD Biosciences, San Jose, Calif.), and the mean fluorescence intensity (MFI) was plotted as a function of antibody concentration using Graph Pad Prism software (GraphPad Software, San Diego, Calif.) from which half-maximal binding (EC50) values were determined by sigmoidal dose response modeling.
row,Binder,EC50 (read off the curve) [µg/mL]
1,B4,~0.03

# Biological target: T7, human FcγRIIb on cells (transfected …)
# Experiment: flow cytometry on FcγRIIb-transfected 293T cells [middle left panel]
# Protocol: as §3
row,Binder,EC50 (read off the curve) [µg/mL]
1,B3,~0.01
